{"source": "patent US7378234B2", "about": "“Method for isolating hepatitis C virus peptides” (Intercell AG, priority 2002, dated 2008)", "molecules": {"B1": {"name": "MSTNPKPQRKTKRNTNRRPQDVKFPGGGQIVGGVYLLPRRGPRLGVRATRKTSERSQPRGRRQPIPK (peptide)", "peptide": "MSTNPKPQRKTKRNTNRRPQDVKFPGGGQIVGGVYLLPRRGPRLGVRATRKTSERSQPRGRRQPIPK"}}, "test_system": "HLA-B*0702 transgenic mice", "experiment": "Vaccination of HLA-B*0702 transgenic mice (peptide + IC31), IFN-gamma ELISpot with spleen cells and CD8+ fraction", "assay_type": "in vivo, mouse", "conditions": "for specific INF-γ producing T cells / HLA-B*0702 epitope in HLA-B*0702 transgenic mice (in words): peptide + IC31, whole spleen cells and CD8+ fraction", "protocol": "Mouse splenocyte ELIspot assay for single cell IFN-gamma release ELISpot plates (MAHA S4510, Millipore, Germany) were rinsed with PBS (200 μl/well), coated with anti-mouse IFN-gamma mAb (clone R46A2; 100 μl/well of 5 μg/ml in 0.1 M NaHCO3, pH 9.2-9.5) and incubated overnight at 4° C. Plates were washed four times with PBS/0.1% Tween 20 and incubated with PBS/1% BSA (200 μl/well) at room temperature for 2 h to block nonspecific binding. Spleen cells from vaccinated mice were prepared and plated at 1×10^6-3×10^5 cells/well and incubated overnight at 37° C./5% CO2 either in the presence of the immunizing antigen (peptide), control peptides or with medium alone. Subsequently, plates were washed four times and incubated with biotinylated anti-mouse IFN-gamma mAb (clone AN18.17.24, 100 μl/well of 2 μg/ml in PBS/1% BSA) for 2 h at 37° C. After washing, streptavidin-peroxidase (Roche Diagnostics, Vienna, Austria) was added ( 1/5000 in PBS, 100 μl/well) and plates were incubated at room temperature for 2 additional hours. Subsequently, substrate was added to the washed plates (100 μl/well of a mixture of 10 ml 100 mM Tris pH 7.5 supplemented with 200 μl of 40 mg/ml DAB stock containing 50 μl of 80 mg/ml NiCl2 stock and 5 μl of 30% H2O2). The reaction was stopped after 20-30 minutes by washing the plates with tap water. Dried plates were evaluated with an ELISpot reader (BIOREADER 2000, BioSys, Karben, Germany).\nGroups of 5 mice (HLA-A*0201-, HLA-DRB1*0401- and HLA-B*0702 transgenic mice, male, 8-14 weeks of age) were injected subcutaneous into the hind footpads with 100 μg of peptide +IC31 per mouse (50 μg per footpad). (PCT/EP01/12041, WO 02/32451 A1 and PCT/EP01/06433, WO 01/93905 A1; IC31 is a combination of the immunizer disclosed in WO 01/93905 and WO 02/32451). […]", "note": "Entries after “also recorded” stand apart in the source; their conditions may differ."}
{"molecule": "B1", "values": [{"measurement": "Immunogenicity, peptide-specific IFN-gamma-producing cells, B*0702", "setting": "HLA-B*0702 transgenic mice, splenocytes", "value": "+ (immunogenic (+, less than 100 peptide-specific cells among a million splenocytes))"}, {"measurement": "specific INF-γ producing T cells / HLA-B*0702 epitope in HLA-B*0702 transgenic mice (in words)", "value": "confirmed to contain human HLA-B*0702 epitopes; also recorded: HLA-B*0702 epitopes with T-cell activating capacity"}, {"measurement": "specific INF-γ producing T cells / HLA-B*0702 epitope in HLA-B*0702 transgenic mice (in words)", "setting": "listed as Ipep1506", "value": "significant interferon-gamma induction"}]}
